Numbering of substitutions follows the chain as printed.
Assays:
Assay in all cases: fluorescence anisotropy
Settings in all cases: Anisotropy: 50 mM Tris-HCl pH 7.5, 1 mM DTT, 0.1 mg/mL BSA, 10 nM FAM48, 23 °C (Kd per monomer), gel assay: 10 µM Redβ, 50 µM nt of each oligo, PBS, 37 °C
[1] = biological target: T1, Redβ K69A K69A (bacteriophage λ) (UniProt P03698)
T1 sequence: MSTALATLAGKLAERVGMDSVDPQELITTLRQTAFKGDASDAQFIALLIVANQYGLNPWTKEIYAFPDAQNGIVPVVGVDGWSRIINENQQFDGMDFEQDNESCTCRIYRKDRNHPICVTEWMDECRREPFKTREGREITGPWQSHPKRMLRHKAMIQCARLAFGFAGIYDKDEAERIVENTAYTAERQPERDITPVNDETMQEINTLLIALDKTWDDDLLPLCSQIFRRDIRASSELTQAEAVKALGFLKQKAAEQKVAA

[2] = biological target: T2, Redβ K132A K132A (bacteriophage λ) (UniProt P03698)
T2 sequence: T1 sequence with A69K, K132A

[3] = biological target: T3, Redβ K253A K253A (bacteriophage λ) (UniProt P03698)
T3 sequence: T1 sequence with A69K, K253A

[4] = biological target: T4, Redβ K214A K214A (bacteriophage λ) (UniProt P03698)
T4 sequence: T1 sequence with A69K, K214A

[5] = biological target: T5, Redβ K154A K154A (bacteriophage λ) (UniProt P03698)
T5 sequence: T1 sequence with A69K, K154A

[6] = biological target: T6, Redβ K172A K172A (bacteriophage λ) (UniProt P03698)
T6 sequence: T1 sequence with A69K, K172A

[7] = biological target: T7, Redβ WT (bacteriophage λ, UniProt P03698 1-261)
T7 sequence: T1 sequence with A69K

[8] = biological target: T8, Redβ K251A K251A (bacteriophage λ) (UniProt P03698)
T8 sequence: T1 sequence with A69K, K251A

[9] = biological target: T9, Redβ K111A K111A (bacteriophage λ) (UniProt P03698)
T9 sequence: T1 sequence with A69K, K111A

FAM48 48-mer ssDNA
Kd [1]: 410 nM | Kd [2]: 1770 nM | Kd [3]: 210 nM | Kd [4]: 310 nM | Kd [5]: 2100 nM | Kd [6]: 2600 nM | Kd [7]: 110 nM | Kd [8]: 190 nM | Kd [9]: 2400 nM

Reference: paper PMC8303780, “Mutational Analysis of Redβ Single Strand Annealing Protein: Roles of the 14 Lysine Residues in DNA Binding and Recombination In Vivo”
